Measured values from PMC9076830, “Structure of the Arabidopsis guard cell anion channel SLAC1 suggests activation mechanism by phosphorylation” (Nature Communications, 2022).

Target: the molecule itself
Assay: cryo-EM structure; single-particle analysis of purified AtSLAC1 S59A in 25 mM HEPES pH 7.4, 150 mM NaCl, 0.03% digitonin; final refinement with C3 symmetry; 2.7 Å

B1: Arabidopsis thaliana slow anion channel 1 (AtSLAC1) S59A mutant (natural protein, UniProt Q9LD83 1-556, looked up)
chain: MERKQSNAHSTFADINEVEDEAEQELQQQENNNNKRFSGNRGPNRGKQRPFRGFSRQVALETGFSVLNRESRERDDKKSLPRSGRSFGGFESGGIINGGDGRKTDFSMFRTKSTLSKQKSLLPSIIRERDIENSLRTEDGETKDDSINENVSAGRYFAALRGPELDEVKDNEDILLPKEEQWPFLLRFPIGCFGICLGLSSQAVLWLALAKSPATNFLHITPLINLVVWLFSLVVLVSVSFTYILKCIFYFEAVKREYFHPVRVNFFFAPWVVCMFLAISVPPMFSPNRKYLHPAIWCVFMGPYFFLELKIYGQWLSGGKRRLCKVANPSSHLSVVGNFVGAILASKVGWDEVAKFLWAVGFAHYLVVFVTLYQRLPTSEALPKELHPVYSMFIAAPSAASIAWNTIYGQFDGCSRTCFFIALFLYISLVARINFFTGFKFSVAWWSYTFPMTTASVATIKYAEAVPGYPSRALALTLSFISTAMVCVLFVSTLLHAFVWQTLFPNDLAIAITKRKLTREKKPFKRAYDLKRWTKQALAKKISAEKDFEAEEESHH
modifications: S146 and S543 identified as phosphorylated by mass spectrometry of the purified S59A mutant
notes: Slow anion channel 1 (SLAC1), Arabidopsis thaliana, full length, 556 residues; codon-optimised synthetic DNA; residues 150-517 modelled in the structure; No step that removes the tags is described; not shown: Flag, N-terminal, kept
stoichiometry N: 3
